Changes are numbered by the printed parent chain. In names and notes the source's numbering stands.
B1: K92chemFE F26A (peptide)
peptide: TCPEGWSECGVAIYGYECGRWGCGHALNSGPNISPYVST
B2: K92chemFE Y16A (peptide)
peptide: B1 peptide with Y16A, A26F
B3: K92chemFE W21A (peptide)
peptide: B1 peptide with W21A, A26F
B4: K92chemFE W6A (peptide)
peptide: B1 peptide with W6A, A26F
B5: K92chemFE Y14A (peptide)
peptide: B1 peptide with Y14A, A26F
B6: K92chemFE W21H (peptide)
peptide: B1 peptide with W21H, A26F

target: T1, human complement component C5 (human, UniProt P01031 19-673; P01031 678-1676); assay: SPR multi-cycle kinetics, human C5 immobilised, mean of n=3
T1 construct: mature; Mature C5 is a disulphide-linked beta and alpha chain cut from one precursor; Terbium-labelled in the FRET assays, biotinylated in part of the phage ELISA; also called human C5; C5-Tb
T1 sequence (P01031 19-673 limits assumed, chain 1 of 2): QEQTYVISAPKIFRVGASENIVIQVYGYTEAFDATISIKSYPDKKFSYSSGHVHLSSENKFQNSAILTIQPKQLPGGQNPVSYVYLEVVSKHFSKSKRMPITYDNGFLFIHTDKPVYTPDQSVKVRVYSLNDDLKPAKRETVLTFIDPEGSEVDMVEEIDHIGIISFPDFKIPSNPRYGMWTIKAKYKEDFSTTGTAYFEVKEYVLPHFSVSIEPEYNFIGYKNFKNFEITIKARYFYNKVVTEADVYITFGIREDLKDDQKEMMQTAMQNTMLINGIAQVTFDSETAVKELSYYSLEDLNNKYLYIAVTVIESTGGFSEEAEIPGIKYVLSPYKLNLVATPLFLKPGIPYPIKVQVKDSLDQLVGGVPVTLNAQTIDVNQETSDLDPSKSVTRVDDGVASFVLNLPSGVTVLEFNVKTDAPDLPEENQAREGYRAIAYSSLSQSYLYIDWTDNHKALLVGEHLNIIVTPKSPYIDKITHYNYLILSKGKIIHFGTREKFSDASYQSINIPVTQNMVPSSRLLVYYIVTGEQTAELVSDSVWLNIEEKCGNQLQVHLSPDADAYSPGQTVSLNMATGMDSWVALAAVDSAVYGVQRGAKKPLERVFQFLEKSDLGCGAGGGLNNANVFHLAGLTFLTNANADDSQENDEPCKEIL
T1 sequence (P01031 678-1676 limits assumed, chain 2 of 2): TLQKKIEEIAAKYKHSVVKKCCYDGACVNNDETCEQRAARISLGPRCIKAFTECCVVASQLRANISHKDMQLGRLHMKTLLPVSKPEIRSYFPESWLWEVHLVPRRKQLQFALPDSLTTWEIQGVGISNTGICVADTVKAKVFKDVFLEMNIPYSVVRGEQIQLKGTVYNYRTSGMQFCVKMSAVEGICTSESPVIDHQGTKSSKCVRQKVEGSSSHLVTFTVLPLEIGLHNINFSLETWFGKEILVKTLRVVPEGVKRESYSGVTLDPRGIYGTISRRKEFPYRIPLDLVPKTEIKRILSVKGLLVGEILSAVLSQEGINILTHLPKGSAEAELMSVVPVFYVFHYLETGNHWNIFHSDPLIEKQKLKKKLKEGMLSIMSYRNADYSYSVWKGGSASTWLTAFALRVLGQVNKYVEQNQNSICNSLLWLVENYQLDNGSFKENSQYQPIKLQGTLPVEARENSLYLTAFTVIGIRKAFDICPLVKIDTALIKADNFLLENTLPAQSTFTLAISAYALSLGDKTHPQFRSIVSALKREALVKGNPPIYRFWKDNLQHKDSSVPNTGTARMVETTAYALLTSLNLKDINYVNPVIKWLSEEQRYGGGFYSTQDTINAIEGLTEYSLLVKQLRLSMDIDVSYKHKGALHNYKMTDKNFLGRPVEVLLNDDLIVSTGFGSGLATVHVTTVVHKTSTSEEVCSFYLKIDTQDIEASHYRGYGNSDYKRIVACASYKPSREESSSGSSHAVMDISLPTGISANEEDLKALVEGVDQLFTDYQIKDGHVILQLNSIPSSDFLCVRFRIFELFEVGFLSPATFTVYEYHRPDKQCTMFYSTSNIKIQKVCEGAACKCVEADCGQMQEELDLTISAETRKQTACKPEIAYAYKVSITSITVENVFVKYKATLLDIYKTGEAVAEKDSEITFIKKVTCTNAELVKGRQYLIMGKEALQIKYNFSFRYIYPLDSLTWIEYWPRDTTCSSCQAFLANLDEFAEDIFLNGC

First: B1
Second: B2
The Kd of the first is 12-fold lower: 18.8 nM for the first, 221 nM for the second.

Compared with B3, B4 is 2.3-fold lower in Kd: 497 nM for the first, 219 nM for the second. The second binds more tightly here.

Compared with B5, B6 is 2.4-fold lower in Kd: 3.62 nM for the first, 1.48 nM for the second.

Going from B1 to B2, the koff rises from 0.00328 s⁻¹ to 0.786 s⁻¹ (240-fold).

Going from B3 to B4, the koff falls from 0.00848 s⁻¹ to 0.00157 s⁻¹ (5.4-fold).

Going from B5 to B6, the koff rises from 0.0001 s⁻¹ to 0.000612 s⁻¹ (6.1-fold).

Going from B1 to B3, the kon falls from 184000 M⁻¹ s⁻¹ to 17400 M⁻¹ s⁻¹ (11-fold).

First: B4
Second: B5
The kon of the first is 3.4-fold lower: 7980 M⁻¹ s⁻¹ for the first, 27200 M⁻¹ s⁻¹ for the second.

With B6 the kon was 425000 M⁻¹ s⁻¹.

— patent publication US20240024520A1 (UCB, published 2024)
